The test has as its target recombinant mouse FcγRIIB expressed in NS0 cells (mouse) (UniProt P08101). Description: SPR (Biacore); capture sample on chip, rmFcgRIIB (NSO) injected; reference Herceptin. On the technique in general: Surface plasmon resonance follows binding to a sensor surface in real time, without labels.

The text below walks through data of patent US20160215061A1.

Chain of recombinant mouse FcγRIIB expressed in NS0 cells (mouse) (P08101 40-207 limits assumed): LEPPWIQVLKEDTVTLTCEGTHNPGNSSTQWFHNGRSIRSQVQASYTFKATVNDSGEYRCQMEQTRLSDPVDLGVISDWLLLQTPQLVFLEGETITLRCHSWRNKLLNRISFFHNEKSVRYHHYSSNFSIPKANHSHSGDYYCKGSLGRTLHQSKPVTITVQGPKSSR

For the substance “F243A/V264A Fc (SEQ ID NO: 7) (from UniProt P0DOX5 218-448)”, the Fold Increase in RU vs WT IgG1 came out at 0.5 fold.
